The record followed here is publication PMC5578738.

pKd: −log10 of the molar value.

As a reminder, the pKd is the negative decadic logarithm of the Kd, by convention in mol/L. A higher pKd goes with a low Kd. As a reminder, the koff is the rate constant with which the complex falls apart.

Assay [1] deals with Beat-VI complete ectodomain, biotinylated (SPR) (Drosophila melanogaster) (UniProt Q9VAV8). The experiment in a line: SPR; Biacore 3000; biotinylated Beat-VI or Beat-Ic captured on an SA chip, Side-II or Side-III fragments flowed over; HBSp+ and 1% (w/v) BSA; equilibrium fit, three titration series.
Chain of Beat-VI complete ectodomain, biotinylated (SPR) (Drosophila melanogaster) (Q9VAV8 entry or part of it): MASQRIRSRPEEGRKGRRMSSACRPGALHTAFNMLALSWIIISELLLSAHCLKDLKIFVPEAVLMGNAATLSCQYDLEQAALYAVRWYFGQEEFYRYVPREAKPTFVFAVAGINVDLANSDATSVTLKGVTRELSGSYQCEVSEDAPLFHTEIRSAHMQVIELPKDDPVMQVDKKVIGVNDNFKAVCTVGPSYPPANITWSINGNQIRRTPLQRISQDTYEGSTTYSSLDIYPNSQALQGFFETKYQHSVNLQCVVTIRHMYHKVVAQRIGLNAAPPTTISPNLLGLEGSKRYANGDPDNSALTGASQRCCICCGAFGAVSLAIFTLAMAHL
In assay [2] the target is Beat-Ic complete ectodomain, biotinylated (SPR) (Drosophila melanogaster) (UniProt Q7JUP9). The assay is described as above.
Chain of Beat-Ic complete ectodomain, biotinylated (SPR) (Drosophila melanogaster) (Q7JUP9 entry or part of it): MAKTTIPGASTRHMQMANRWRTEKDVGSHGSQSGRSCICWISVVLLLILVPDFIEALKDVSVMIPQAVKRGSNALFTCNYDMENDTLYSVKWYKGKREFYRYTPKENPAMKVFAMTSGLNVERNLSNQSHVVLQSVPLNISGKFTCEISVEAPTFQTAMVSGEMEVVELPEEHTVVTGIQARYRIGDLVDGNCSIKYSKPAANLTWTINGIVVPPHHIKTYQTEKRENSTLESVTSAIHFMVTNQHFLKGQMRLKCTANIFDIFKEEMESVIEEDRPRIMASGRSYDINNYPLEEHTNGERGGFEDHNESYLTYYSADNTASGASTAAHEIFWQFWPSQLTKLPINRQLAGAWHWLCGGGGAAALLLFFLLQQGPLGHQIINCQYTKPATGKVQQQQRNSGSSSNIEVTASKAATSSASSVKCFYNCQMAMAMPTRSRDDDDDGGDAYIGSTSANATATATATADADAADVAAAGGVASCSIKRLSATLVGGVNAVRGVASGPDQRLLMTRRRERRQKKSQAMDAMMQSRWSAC
Assay [3] addresses Side-VI (CG34114) complete ectodomain, biotinylated (SPR) (Drosophila melanogaster) (UniProt Q0KI85). The experiment in a line: SPR; Biacore T100; biotinylated Side-VI captured on an SA chip, Beat-Va or Beat-Vb flowed over; HBSp+ with 500 mM NaCl and 15% glycerol; equilibrium responses fitted to a Langmuir isotherm.

Chain of Side-VI (CG34114) complete ectodomain, biotinylated (SPR) (Drosophila melanogaster) (Q0KI85 entry or part of it): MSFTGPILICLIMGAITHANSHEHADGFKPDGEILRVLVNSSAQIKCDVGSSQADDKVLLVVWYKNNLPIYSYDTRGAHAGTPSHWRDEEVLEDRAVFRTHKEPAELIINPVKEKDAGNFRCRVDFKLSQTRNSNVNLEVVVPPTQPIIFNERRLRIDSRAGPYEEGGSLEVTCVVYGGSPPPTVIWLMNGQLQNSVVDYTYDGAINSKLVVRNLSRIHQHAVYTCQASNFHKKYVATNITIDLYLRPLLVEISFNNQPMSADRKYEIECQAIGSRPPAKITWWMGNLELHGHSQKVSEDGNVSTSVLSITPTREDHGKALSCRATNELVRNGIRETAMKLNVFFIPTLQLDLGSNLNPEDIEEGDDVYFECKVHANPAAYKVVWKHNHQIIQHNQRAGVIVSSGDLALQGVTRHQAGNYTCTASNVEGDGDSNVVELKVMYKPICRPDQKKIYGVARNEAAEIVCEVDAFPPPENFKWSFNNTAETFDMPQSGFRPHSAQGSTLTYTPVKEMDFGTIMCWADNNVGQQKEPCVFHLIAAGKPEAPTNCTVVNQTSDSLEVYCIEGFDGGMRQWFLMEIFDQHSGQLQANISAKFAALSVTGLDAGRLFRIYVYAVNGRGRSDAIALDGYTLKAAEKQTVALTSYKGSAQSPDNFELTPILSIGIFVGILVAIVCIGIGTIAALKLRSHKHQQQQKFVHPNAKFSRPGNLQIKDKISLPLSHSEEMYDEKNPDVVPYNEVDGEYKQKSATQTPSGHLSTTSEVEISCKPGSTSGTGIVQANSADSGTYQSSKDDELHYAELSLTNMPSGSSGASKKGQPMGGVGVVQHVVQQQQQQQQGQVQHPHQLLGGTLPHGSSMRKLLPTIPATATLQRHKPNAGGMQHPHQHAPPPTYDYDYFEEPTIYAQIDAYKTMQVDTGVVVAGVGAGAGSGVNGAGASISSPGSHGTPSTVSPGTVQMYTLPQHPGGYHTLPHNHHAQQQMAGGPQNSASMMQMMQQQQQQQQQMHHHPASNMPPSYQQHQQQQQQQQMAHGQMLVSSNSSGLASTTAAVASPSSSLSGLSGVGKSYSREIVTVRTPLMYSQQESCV

For “Side-II N-terminal single IgSF domain (SPR) (from UniProt Q59DZ1 1-1064) (domain or fragment)”, in assay [1], the pKd is 5.56.

For the substance “Side-III N-terminal single IgSF domain (SPR) (domain or fragment)”, in assay [2], the negative-log Kd (pKd) is 4.20.

As to “Beat-Vb complete ectodomain (SPR) (from UniProt Q9VG19 1-328) (domain or fragment)”, in assay [3], the pKd is 5.64 and the koff is greater than 0.5 s⁻¹.
